# T1: APBA1_2, Q02410
# T1 sequence (Q02410 742-832, limits assumed, looked up): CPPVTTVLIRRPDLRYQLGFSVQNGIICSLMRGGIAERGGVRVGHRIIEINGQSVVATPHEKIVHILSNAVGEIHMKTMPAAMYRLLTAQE
# T2: APBA3_1, O96018
# T2 sequence (O96018 389-490, limits assumed, looked up): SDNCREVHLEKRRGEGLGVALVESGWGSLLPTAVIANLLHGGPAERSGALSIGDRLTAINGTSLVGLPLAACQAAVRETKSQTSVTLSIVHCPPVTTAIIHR
# T3: DFNB31_1, Q9P202
# T3 sequence (Q9P202 135-233, limits assumed, looked up): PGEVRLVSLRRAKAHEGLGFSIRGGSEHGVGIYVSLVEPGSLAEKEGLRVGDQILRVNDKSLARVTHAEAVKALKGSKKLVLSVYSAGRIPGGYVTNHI
# T4: DFNB31_3, Q9P202
# T4 sequence (Q9P202 811-907, limits assumed, looked up): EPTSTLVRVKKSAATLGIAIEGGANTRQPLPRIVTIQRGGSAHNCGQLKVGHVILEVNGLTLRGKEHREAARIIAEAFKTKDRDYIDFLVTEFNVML
# T5: GRIP1_3, Q9Y3R0
# T5 sequence (Q9Y3R0 247-346, limits assumed, looked up): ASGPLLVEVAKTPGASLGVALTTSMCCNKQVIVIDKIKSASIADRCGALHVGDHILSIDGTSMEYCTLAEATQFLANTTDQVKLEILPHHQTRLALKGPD
# T6: GRIP1_7, Q9Y3R0
# T6 sequence (Q9Y3R0 999-1096, limits assumed, looked up): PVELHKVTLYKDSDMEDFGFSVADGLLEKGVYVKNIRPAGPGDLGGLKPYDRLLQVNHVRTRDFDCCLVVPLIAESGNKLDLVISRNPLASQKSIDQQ
# T7: MPDZ_12, O75970
# T7 sequence (O75970 1857-1958, limits assumed, looked up): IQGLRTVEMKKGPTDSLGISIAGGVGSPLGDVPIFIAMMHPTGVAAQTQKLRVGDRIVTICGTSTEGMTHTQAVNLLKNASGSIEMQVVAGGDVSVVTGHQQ
# T8: MPP6, Q9NZW5
# T8 sequence (Q9NZW5 125-219, limits assumed, looked up): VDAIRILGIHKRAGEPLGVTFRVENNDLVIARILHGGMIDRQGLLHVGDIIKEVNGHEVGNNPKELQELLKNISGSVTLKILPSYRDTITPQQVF
# T9: PDZD7_3, Q9H5P4
# T9 sequence (Q9H5P4 857-944, limits assumed, looked up): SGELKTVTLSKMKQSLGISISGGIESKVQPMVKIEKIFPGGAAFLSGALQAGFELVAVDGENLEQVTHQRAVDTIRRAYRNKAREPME
# T10: PTPN13_1, Q12923
# T10 sequence (Q12923 1088-1188, limits assumed, looked up): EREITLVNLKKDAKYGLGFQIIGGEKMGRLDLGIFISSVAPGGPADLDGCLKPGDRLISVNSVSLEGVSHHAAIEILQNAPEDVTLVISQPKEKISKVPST
# T11: SHANK1, Q9Y566
# T11 sequence (Q9Y566 658-767, limits assumed, looked up): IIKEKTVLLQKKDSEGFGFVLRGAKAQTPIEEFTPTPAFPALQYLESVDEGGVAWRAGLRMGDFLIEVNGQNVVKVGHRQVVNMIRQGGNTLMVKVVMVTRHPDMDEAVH
# T12: SYNJ2BP, P57105
# T12 sequence (P57105 8-110, limits assumed, looked up): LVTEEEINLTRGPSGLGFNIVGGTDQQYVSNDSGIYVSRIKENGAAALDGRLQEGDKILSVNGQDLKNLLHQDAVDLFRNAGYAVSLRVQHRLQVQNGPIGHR
# Target: AHNAK1, Q09666
# Sequence (Q09666 4-100): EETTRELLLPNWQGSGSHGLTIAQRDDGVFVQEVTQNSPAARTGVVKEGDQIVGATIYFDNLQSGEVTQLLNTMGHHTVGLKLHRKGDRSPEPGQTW
# Assay: holdup assay
# Parameters: key: below the threshold = too weak to quantify, mostly under pKd 3.1 to 4
# Details: plain residues with an end cap or a label only (N-terminal biotin on a linker: ado-ado)
row,Binder,pKd
1,"SKQFDKNAYV [CLDN10, P78369]",below the threshold

# Target: T1, APBA1_2, Q02410
# Assay: holdup assay
# Parameters: key: below the threshold = too weak to quantify, mostly under pKd 3.1 to 4
# Details: plain residues with an end cap or a label only (N-terminal biotin on a linker: ado-ado)
row,Binder,pKd
1,"SKQFDKNAYV [CLDN10, P78369]",3.73

# Target: T2, APBA3_1, O96018
# Assay: holdup assay
# Parameters: key: below the threshold = too weak to quantify, mostly under pKd 3.1 to 4
# Details: plain residues with an end cap or a label only (N-terminal biotin on a linker: ado-ado)
row,Binder,pKd
1,"SKQFDKNAYV [CLDN10, P78369]",below the threshold

# Target: T3, DFNB31_1, Q9P202
# Assay: holdup assay
# Parameters: key: below the threshold = too weak to quantify, mostly under pKd 3.1 to 4
# Details: plain residues with an end cap or a label only (N-terminal biotin on a linker: ado-ado)
row,Binder,pKd
1,"SKQFDKNAYV [CLDN10, P78369]",below the threshold

# Target: T4, DFNB31_3, Q9P202
# Assay: holdup assay
# Parameters: key: below the threshold = too weak to quantify, mostly under pKd 3.1 to 4
# Details: plain residues with an end cap or a label only (N-terminal biotin on a linker: ado-ado)
row,Binder,pKd
1,"SKQFDKNAYV [CLDN10, P78369]",below the threshold

# Target: DLG1_1, Q12959
# Assay: holdup assay
# Parameters: key: below the threshold = too weak to quantify, mostly under pKd 3.1 to 4
# Details: plain residues with an end cap or a label only (N-terminal biotin on a linker: ado-ado)
row,Binder,pKd
1,"SKQFDKNAYV [CLDN10, P78369]",below the threshold

# Target: DLG4_2, P78352
# Sequence (P78352 155-259): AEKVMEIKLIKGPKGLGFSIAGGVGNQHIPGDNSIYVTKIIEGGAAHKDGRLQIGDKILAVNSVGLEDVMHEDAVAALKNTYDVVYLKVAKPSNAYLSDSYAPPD
# Assay: holdup assay
# Parameters: key: below the threshold = too weak to quantify, mostly under pKd 3.1 to 4
# Details: plain residues with an end cap or a label only (N-terminal biotin on a linker: ado-ado)
row,Binder,pKd
1,"SKQFDKNAYV [CLDN10, P78369]",3.52

# Target: DLG4_3, P78352
# Sequence (P78352 306-403): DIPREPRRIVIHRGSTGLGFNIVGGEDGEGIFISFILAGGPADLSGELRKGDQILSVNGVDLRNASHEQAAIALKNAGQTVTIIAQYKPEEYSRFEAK
# Assay: holdup assay
# Parameters: key: below the threshold = too weak to quantify, mostly under pKd 3.1 to 4
# Details: plain residues with an end cap or a label only (N-terminal biotin on a linker: ado-ado)
row,Binder,pKd
1,"SKQFDKNAYV [CLDN10, P78369]",below the threshold

# Target: DLG5_1, Q8TDM6
# Sequence (Q8TDM6 617-713): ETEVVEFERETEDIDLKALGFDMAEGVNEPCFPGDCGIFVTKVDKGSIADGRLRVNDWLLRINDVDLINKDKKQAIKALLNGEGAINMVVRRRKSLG
# Assay: holdup assay
# Parameters: key: below the threshold = too weak to quantify, mostly under pKd 3.1 to 4
# Details: plain residues with an end cap or a label only (N-terminal biotin on a linker: ado-ado)
row,Binder,pKd
1,"SKQFDKNAYV [CLDN10, P78369]",below the threshold

# Target: FRMPD2_3, Q68DX3
# Sequence (Q68DX3 1073-1166): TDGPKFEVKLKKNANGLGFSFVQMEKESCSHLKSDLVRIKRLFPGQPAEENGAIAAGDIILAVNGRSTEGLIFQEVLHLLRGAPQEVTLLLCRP
# Assay: holdup assay
# Parameters: key: below the threshold = too weak to quantify, mostly under pKd 3.1 to 4
# Details: plain residues with an end cap or a label only (N-terminal biotin on a linker: ado-ado)
row,Binder,pKd
1,"SKQFDKNAYV [CLDN10, P78369]",below the threshold

# Target: GRID2IP_1, A4D2P6
# Sequence (A4D2P6 1-87): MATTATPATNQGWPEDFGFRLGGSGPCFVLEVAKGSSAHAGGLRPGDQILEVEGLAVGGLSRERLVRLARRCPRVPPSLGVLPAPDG
# Assay: holdup assay
# Parameters: key: below the threshold = too weak to quantify, mostly under pKd 3.1 to 4
# Details: plain residues with an end cap or a label only (N-terminal biotin on a linker: ado-ado)
row,Binder,pKd
1,"SKQFDKNAYV [CLDN10, P78369]",below the threshold

# Target: GRID2IP_2, A4D2P6
# Sequence (A4D2P6 272-370): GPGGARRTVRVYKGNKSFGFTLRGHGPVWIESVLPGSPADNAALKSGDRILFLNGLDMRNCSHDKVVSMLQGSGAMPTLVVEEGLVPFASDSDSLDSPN
# Assay: holdup assay
# Parameters: key: below the threshold = too weak to quantify, mostly under pKd 3.1 to 4
# Details: plain residues with an end cap or a label only (N-terminal biotin on a linker: ado-ado)
row,Binder,pKd
1,"SKQFDKNAYV [CLDN10, P78369]",below the threshold

# Target: T5, GRIP1_3, Q9Y3R0
# Assay: holdup assay
# Parameters: key: below the threshold = too weak to quantify, mostly under pKd 3.1 to 4
# Details: plain residues with an end cap or a label only (N-terminal biotin on a linker: ado-ado)
row,Binder,pKd
1,"SKQFDKNAYV [CLDN10, P78369]",below the threshold

# Target: T6, GRIP1_7, Q9Y3R0
# Assay: holdup assay
# Parameters: key: below the threshold = too weak to quantify, mostly under pKd 3.1 to 4
# Details: plain residues with an end cap or a label only (N-terminal biotin on a linker: ado-ado)
row,Binder,pKd
1,"SKQFDKNAYV [CLDN10, P78369]",below the threshold

# Target: Inadl_8, Q8NI35
# Sequence (Q8NI35 1425-1530): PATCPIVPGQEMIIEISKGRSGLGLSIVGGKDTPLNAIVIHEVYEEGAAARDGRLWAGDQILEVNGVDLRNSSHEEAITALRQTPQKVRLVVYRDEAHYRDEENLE
# Assay: holdup assay
# Parameters: key: below the threshold = too weak to quantify, mostly under pKd 3.1 to 4
# Details: plain residues with an end cap or a label only (N-terminal biotin on a linker: ado-ado)
row,Binder,pKd
1,"SKQFDKNAYV [CLDN10, P78369]",3.5

# Target: MAGI1_1, Q96QZ7
# Sequence (Q96QZ7 1-106): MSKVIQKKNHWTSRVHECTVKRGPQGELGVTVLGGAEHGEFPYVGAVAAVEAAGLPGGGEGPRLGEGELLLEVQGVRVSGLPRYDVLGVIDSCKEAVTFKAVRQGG
# Assay: holdup assay
# Parameters: key: below the threshold = too weak to quantify, mostly under pKd 3.1 to 4
# Details: plain residues with an end cap or a label only (N-terminal biotin on a linker: ado-ado)
row,Binder,pKd
1,"SKQFDKNAYV [CLDN10, P78369]",below the threshold

# Target: MAGI1_2, Q96QZ7
# Sequence (Q96QZ7 456-580): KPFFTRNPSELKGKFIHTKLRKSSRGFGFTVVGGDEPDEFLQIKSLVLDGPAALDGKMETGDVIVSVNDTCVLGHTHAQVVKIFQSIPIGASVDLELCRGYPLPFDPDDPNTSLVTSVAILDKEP
# Assay: holdup assay
# Parameters: key: below the threshold = too weak to quantify, mostly under pKd 3.1 to 4
# Details: plain residues with an end cap or a label only (N-terminal biotin on a linker: ado-ado)
row,Binder,pKd
1,"SKQFDKNAYV [CLDN10, P78369]",below the threshold

# Target: T7, MPDZ_12, O75970
# Assay: holdup assay
# Parameters: key: below the threshold = too weak to quantify, mostly under pKd 3.1 to 4
# Details: plain residues with an end cap or a label only (N-terminal biotin on a linker: ado-ado)
row,Binder,pKd
1,"SKQFDKNAYV [CLDN10, P78369]",below the threshold

# Target: T8, MPP6, Q9NZW5
# Assay: holdup assay
# Parameters: key: below the threshold = too weak to quantify, mostly under pKd 3.1 to 4
# Details: plain residues with an end cap or a label only (N-terminal biotin on a linker: ado-ado)
row,Binder,pKd
1,"SKQFDKNAYV [CLDN10, P78369]",below the threshold

# Target: NHERF2_2, Q15599
# Sequence (Q15599 142-238): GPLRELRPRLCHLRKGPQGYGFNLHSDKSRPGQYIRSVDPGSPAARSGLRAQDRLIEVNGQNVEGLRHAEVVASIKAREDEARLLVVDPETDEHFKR
# Assay: holdup assay
# Parameters: key: below the threshold = too weak to quantify, mostly under pKd 3.1 to 4
# Details: plain residues with an end cap or a label only (N-terminal biotin on a linker: ado-ado)
row,Binder,pKd
1,"SKQFDKNAYV [CLDN10, P78369]",below the threshold

# Target: T9, PDZD7_3, Q9H5P4
# Assay: holdup assay
# Parameters: key: below the threshold = too weak to quantify, mostly under pKd 3.1 to 4
# Details: plain residues with an end cap or a label only (N-terminal biotin on a linker: ado-ado)
row,Binder,pKd
1,"SKQFDKNAYV [CLDN10, P78369]",below the threshold

# Target: PDZRN4_1, Q6ZMN7
# Sequence (Q6ZMN7 213-318): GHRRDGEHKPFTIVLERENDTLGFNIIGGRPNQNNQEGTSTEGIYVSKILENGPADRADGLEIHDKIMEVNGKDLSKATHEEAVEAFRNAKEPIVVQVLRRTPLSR
# Assay: holdup assay
# Parameters: key: below the threshold = too weak to quantify, mostly under pKd 3.1 to 4
# Details: plain residues with an end cap or a label only (N-terminal biotin on a linker: ado-ado)
row,Binder,pKd
1,"SKQFDKNAYV [CLDN10, P78369]",below the threshold

# Target: T10, PTPN13_1, Q12923
# Assay: holdup assay
# Parameters: key: below the threshold = too weak to quantify, mostly under pKd 3.1 to 4
# Details: plain residues with an end cap or a label only (N-terminal biotin on a linker: ado-ado)
row,Binder,pKd
1,"SKQFDKNAYV [CLDN10, P78369]",below the threshold

# Target: T11, SHANK1, Q9Y566
# Assay: holdup assay
# Parameters: key: below the threshold = too weak to quantify, mostly under pKd 3.1 to 4
# Details: plain residues with an end cap or a label only (N-terminal biotin on a linker: ado-ado)
row,Binder,pKd
1,"SKQFDKNAYV [CLDN10, P78369]",below the threshold

# Target: T12, SYNJ2BP, P57105
# Assay: holdup assay
# Parameters: key: below the threshold = too weak to quantify, mostly under pKd 3.1 to 4
# Details: plain residues with an end cap or a label only (N-terminal biotin on a linker: ado-ado)
row,Binder,pKd
1,"SKQFDKNAYV [CLDN10, P78369]",below the threshold

# Target: TJP1_3, Q07157
# Sequence (Q07157 416-512): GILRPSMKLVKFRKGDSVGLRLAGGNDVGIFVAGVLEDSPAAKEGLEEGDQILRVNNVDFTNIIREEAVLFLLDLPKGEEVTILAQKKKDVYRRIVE
# Assay: holdup assay
# Parameters: key: below the threshold = too weak to quantify, mostly under pKd 3.1 to 4
# Details: plain residues with an end cap or a label only (N-terminal biotin on a linker: ado-ado)
row,Binder,pKd
1,"SKQFDKNAYV [CLDN10, P78369]",below the threshold
